Results published in publication PMC2114473.

Experiments:
Test in all cases: radioligand binding
[1] = target: type I collagen, pepsinized
[2] = target: type III collagen, pepsinized
[3] = target: type II collagen, pepsinized

Substance: human thrombospondin (TSP) (from UniProt P07996 19-1170) (natural protein)
- cpm bound [1]: 5320 cpm
- cpm bound [2]: 4940 cpm
- cpm bound [3]: 5320 cpm
